The target of experiment [1] is GCN4 leucine zipper fused to the β-lactamase fragments N-BLa and C-BLa. As to the kind of experiment: split reporter (BiFC, NanoBiT); split β-lactamase; soluble N-BLa and C-BLa fusions co-expressed in the E. coli periplasm; read-out: ampicillin LD50 in liquid media by optical density.
A further experiment deals with GpA0 G83I. Nature of the experiment: BLaTM 1.2 (split β-lactamase complementation, ampicillin resistance). Conditions: E. coli JM83, 133 μM arabinose, n = 3, read off a plot.
In experiment [2] the target is glycophorin A transmembrane domain G83I mutant, frame GpA+1, in BLaTM hybrid proteins. As to the kind of experiment: split reporter (BiFC, NanoBiT); BLaTM 1.2 (ompA signal) in E. coli JM83; 133 μM arabinose plus 0.3 mM IPTG; ampicillin LD50 given relative to wild-type GpA+1 (=100%); library pairs first selected on ampicillin, then measured one by one; labels are N-BLa/C-BLa.

The target is the same in experiment [3]. As to the kind of experiment: BLaTM 1.1 (split β-lactamase complementation, ampicillin resistance). The conditions noted are these: E. coli BL21; n = 4 separate transformations; parent: est. 160 µg/ml; read off a plot.
The target is the same in experiment [4]. Nature of the experiment: BLaTM 1.2 (split β-lactamase complementation, ampicillin resistance). The conditions noted are these: E. coli JM83, 133 μM arabinose, n = 3, read off a plot.
Experiment [5] addresses quiescin sulfhydryl oxidase 2 transmembrane domain S8A mutant, in BLaTM hybrid proteins. As to the kind of experiment: BLaTM 1.1 (split β-lactamase complementation, ampicillin resistance). Conditions: E. coli BL21; n = 4 separate transformations; parent: est. 80 µg/ml; read off a plot.

Sequence of GCN4 leucine zipper fused to the β-lactamase fragments N-BLa and C-BLa (P03069 whole entry, the tested form may be a part): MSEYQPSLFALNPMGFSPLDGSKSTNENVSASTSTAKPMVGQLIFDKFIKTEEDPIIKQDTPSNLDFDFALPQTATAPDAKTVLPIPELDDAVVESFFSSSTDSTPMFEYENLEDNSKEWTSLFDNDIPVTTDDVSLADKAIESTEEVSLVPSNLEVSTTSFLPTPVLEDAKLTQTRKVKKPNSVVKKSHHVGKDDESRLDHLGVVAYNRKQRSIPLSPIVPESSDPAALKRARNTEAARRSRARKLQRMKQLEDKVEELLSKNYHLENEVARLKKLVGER

For “GCN4 leucine zipper fused to the β-lactamase fragments N-BLa and C-BLa”, the fold rise of the ampicillin LD50 on co-expression of both fragments in experiment [1] was 40 fold.

Consider GpA0 wt G83I, for which the other: LD50 c(Amp) with GpA0 G83I (0.1 mM IPTG, parent: est. 230 µg/ml) is 150 µg/mL; with GpA0 G83I (0.2 mM IPTG, parent: est. 99 µg/ml), 73 µg/mL; in the experiment with GpA0 G83I (0.3 mM IPTG, parent: est. 80 µg/ml) it was 52 µg/mL; with GpA0 G83I (0.4 mM IPTG, parent: est. 61 µg/ml), 38 µg/mL; with GpA0 G83I (0.7 mM IPTG, parent: est. 30 µg/ml), 24 µg/mL.

On to “glycophorin A transmembrane domain G83I mutant, frame GpA+1, in BLaTM hybrid proteins (domain or fragment)”, for which, in experiment [2], the LD50 in % of GpA+1 wt (% (GpA+1 wt = 100%)) was 29.

Regarding “glycophorin A transmembrane domain, wild type, frame GpA+1, in BLaTM hybrid proteins G83I”, the other: LD50 c(Amp) is 16 µg/mL in experiment [3]; 120 µg/mL in experiment [4] (0.1 mM IPTG); 70 µg/mL in experiment [4] (0.2 mM IPTG); 65 µg/mL in experiment [4] (0.3 mM IPTG, parent: est. 270 µg/ml); 43 µg/mL in experiment [4] (0.4 mM IPTG, parent: est. 140 µg/ml); 32 µg/mL in experiment [4] (0.5 mM IPTG, parent: est. 100 µg/ml). Further, the other: LD50 c(Amp) in experiment [4] (0.7 mM IPTG, parent: est. 62 µg/ml) stood at 27 µg/mL.

Consider “quiescin sulfhydryl oxidase 2 transmembrane domain, wild type, in BLaTM hybrid proteins S8A”, for which the other: LD50 c(Amp) in experiment [5] turned out to be 38 µg/mL.
